Measurements from patent publication US6878804B1, “Synthesis of template-fixed β-hairpin loop mimetics” (University of Zurich, priority 1999, dated 2005).
Non-standard residues stand in square brackets, D forms with d.

Molecular target: T1, platelet-derived growth factor β-receptor (PDGFR-β)
T1 chain: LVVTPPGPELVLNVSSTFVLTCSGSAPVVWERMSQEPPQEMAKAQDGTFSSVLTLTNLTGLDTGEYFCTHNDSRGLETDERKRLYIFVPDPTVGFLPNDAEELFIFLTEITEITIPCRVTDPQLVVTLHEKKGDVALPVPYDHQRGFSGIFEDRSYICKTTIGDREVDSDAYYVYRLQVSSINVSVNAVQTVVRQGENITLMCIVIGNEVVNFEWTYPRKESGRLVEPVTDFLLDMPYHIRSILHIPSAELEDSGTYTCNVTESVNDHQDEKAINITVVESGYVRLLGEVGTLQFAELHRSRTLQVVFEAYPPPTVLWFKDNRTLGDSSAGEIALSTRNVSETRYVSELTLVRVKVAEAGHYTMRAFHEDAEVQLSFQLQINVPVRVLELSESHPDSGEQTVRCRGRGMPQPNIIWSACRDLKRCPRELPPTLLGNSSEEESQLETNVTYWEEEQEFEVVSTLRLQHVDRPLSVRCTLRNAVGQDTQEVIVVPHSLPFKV
Experiment: solid-phase competition, displacement of 125I-PDGF-BB from plate-immobilised PDGFR-β

B1: target cyclic peptide 10 (peptide)
peptide: cyclo(PYAVRKKAY[dP])
SMILES: CC(C)[C@@H]1NC(=O)[C@H](C)NC(=O)[C@H](Cc2ccc(O)cc2)NC(=O)[C@@H]2CCCN2C(=O)[C@H]2CCCN2C(=O)[C@H](Cc2ccc(O)cc2)NC(=O)[C@H](C)NC(=O)[C@H](CCCCN)NC(=O)[C@H](CCCCN)NC(=O)[C@H](CCCNC(=N)N)NC1=O
notes: also called ^LP-Y-A-V-R / ^DP-Y-A-K-K
In the case of B1, the IC50 is reported as 2000 µM.

B2: target cyclic peptide 3 (peptide)
peptide: cyclo(PEWVRKKWI[dP])
SMILES: CC[C@H](C)[C@@H]1NC(=O)[C@H](Cc2c[nH]c3ccccc23)NC(=O)[C@H](CCCCN)NC(=O)[C@H](CCCCN)NC(=O)[C@H](CCCNC(=N)N)NC(=O)[C@H](C(C)C)NC(=O)[C@H](Cc2c[nH]c3ccccc23)NC(=O)[C@H](CCC(=O)O)NC(=O)[C@@H]2CCCN2C(=O)[C@H]2CCCN2C1=O
notes: also called compound 3
In the case of B2, the IC50 is reported as 1500 µM.

B3: target cyclic peptide 14 (peptide)
peptide: cyclo(PWYVRKKYW[dP])
SMILES: CC(C)[C@@H]1NC(=O)[C@H](Cc2ccc(O)cc2)NC(=O)[C@H](Cc2c[nH]c3ccccc23)NC(=O)[C@@H]2CCCN2C(=O)[C@H]2CCCN2C(=O)[C@H](Cc2c[nH]c3ccccc23)NC(=O)[C@H](Cc2ccc(O)cc2)NC(=O)[C@H](CCCCN)NC(=O)[C@H](CCCCN)NC(=O)[C@H](CCCNC(=N)N)NC1=O
notes: also called ^LP-W-Y-V-R / ^DP-W-Y-K-K
In the case of B3, the IC50 is reported as 170 µM.

B4: target cyclic peptide 4 (peptide)
peptide: cyclo(PEAVRKKAI[dP])
SMILES: CC[C@H](C)[C@@H]1NC(=O)[C@H](C)NC(=O)[C@H](CCCCN)NC(=O)[C@H](CCCCN)NC(=O)[C@H](CCCNC(=N)N)NC(=O)[C@H](C(C)C)NC(=O)[C@H](C)NC(=O)[C@H](CCC(=O)O)NC(=O)[C@@H]2CCCN2C(=O)[C@H]2CCCN2C1=O
notes: also called compound 4
B4 was tested, and the IC50 was < 2500 µM.

B5: target cyclic peptide 22 (peptide)
peptide: cyclo(PAAVRKKAA[dP])
SMILES: CC(C)[C@@H]1NC(=O)[C@H](C)NC(=O)[C@H](C)NC(=O)[C@@H]2CCCN2C(=O)[C@H]2CCCN2C(=O)[C@H](C)NC(=O)[C@H](C)NC(=O)[C@H](CCCCN)NC(=O)[C@H](CCCCN)NC(=O)[C@H](CCCNC(=N)N)NC1=O
notes: also called ^LP-A-A-V-R / ^DP-A-A-K-K
With B5 the IC50 was < 2500 µM.

B6: target cyclic peptide 17 (peptide)
peptide: cyclo(PWSVRKKSW[dP])
SMILES: CC(C)[C@@H]1NC(=O)[C@H](CO)NC(=O)[C@H](Cc2c[nH]c3ccccc23)NC(=O)[C@@H]2CCCN2C(=O)[C@H]2CCCN2C(=O)[C@H](Cc2c[nH]c3ccccc23)NC(=O)[C@H](CO)NC(=O)[C@H](CCCCN)NC(=O)[C@H](CCCCN)NC(=O)[C@H](CCCNC(=N)N)NC1=O
notes: also called ^LP-W-S-V-R / ^DP-W-S-K-K
For B6, the IC50 was 800 µM.

B7: target cyclic peptide 1 (peptide)
peptide: cyclo(PEIVRKKPI[dP])
SMILES: CC[C@H](C)[C@@H]1NC(=O)[C@H](CCC(=O)O)NC(=O)[C@@H]2CCCN2C(=O)[C@H]2CCCN2C(=O)[C@H]([C@@H](C)CC)NC(=O)[C@@H]2CCCN2C(=O)[C@H](CCCCN)NC(=O)[C@H](CCCCN)NC(=O)[C@H](CCCNC(=N)N)NC(=O)[C@H](C(C)C)NC1=O
notes: mimic of PDGF loop III on a diproline template; also called compound 1
Work on B7 yielded an IC50 of 2200 µM.

B8: target cyclic peptide 24 (peptide)
peptide: cyclo(PAKVRKKKA[dP])
SMILES: CC(C)[C@@H]1NC(=O)[C@H](CCCCN)NC(=O)[C@H](C)NC(=O)[C@@H]2CCCN2C(=O)[C@H]2CCCN2C(=O)[C@H](C)NC(=O)[C@H](CCCCN)NC(=O)[C@H](CCCCN)NC(=O)[C@H](CCCCN)NC(=O)[C@H](CCCNC(=N)N)NC1=O
notes: also called ^LP-A-K-V-R / ^DP-A-K-K-K
In the case of B8, the IC50 is reported as 2500 µM.

B9: target cyclic peptide 23 (peptide)
peptide: cyclo(PASVRKKSA[dP])
SMILES: CC(C)[C@@H]1NC(=O)[C@H](CO)NC(=O)[C@H](C)NC(=O)[C@@H]2CCCN2C(=O)[C@H]2CCCN2C(=O)[C@H](C)NC(=O)[C@H](CO)NC(=O)[C@H](CCCCN)NC(=O)[C@H](CCCCN)NC(=O)[C@H](CCCNC(=N)N)NC1=O
notes: also called ^LP-A-S-V-R / ^DP-A-S-K-K
In the case of B9, the IC50 is reported as 2500 µM.

B10: target cyclic peptide 7 (peptide)
peptide: cyclo(PYIVRKKPY[dP])
SMILES: CC[C@H](C)[C@@H]1NC(=O)[C@H](Cc2ccc(O)cc2)NC(=O)[C@@H]2CCCN2C(=O)[C@H]2CCCN2C(=O)[C@H](Cc2ccc(O)cc2)NC(=O)[C@@H]2CCCN2C(=O)[C@H](CCCCN)NC(=O)[C@H](CCCCN)NC(=O)[C@H](CCCNC(=N)N)NC(=O)[C@H](C(C)C)NC1=O
notes: also called ^LP-Y-I-V-R / ^DP-Y-P-K-K
B10 was tested, and the IC50 was 1500 µM.

B11: target cyclic peptide 19 (peptide)
peptide: cyclo(PAIVRKKPA[dP])
SMILES: CC[C@H](C)[C@@H]1NC(=O)[C@H](C)NC(=O)[C@@H]2CCCN2C(=O)[C@H]2CCCN2C(=O)[C@H](C)NC(=O)[C@@H]2CCCN2C(=O)[C@H](CCCCN)NC(=O)[C@H](CCCCN)NC(=O)[C@H](CCCNC(=N)N)NC(=O)[C@H](C(C)C)NC1=O
notes: also called ^LP-A-I-V-R / ^DP-A-P-K-K
With B11 the IC50 was < 2500 µM.

B12: target cyclic peptide 16 (peptide)
peptide: cyclo(PWAVRKKAW[dP])
SMILES: CC(C)[C@@H]1NC(=O)[C@H](C)NC(=O)[C@H](Cc2c[nH]c3ccccc23)NC(=O)[C@@H]2CCCN2C(=O)[C@H]2CCCN2C(=O)[C@H](Cc2c[nH]c3ccccc23)NC(=O)[C@H](C)NC(=O)[C@H](CCCCN)NC(=O)[C@H](CCCCN)NC(=O)[C@H](CCCNC(=N)N)NC1=O
notes: also called ^LP-W-A-V-R / ^DP-W-A-K-K
For B12, the IC50 was 800 µM.

B13: target cyclic peptide 2 (peptide)
peptide: cyclo(PEYVRKKYI[dP])
SMILES: CC[C@H](C)[C@@H]1NC(=O)[C@H](Cc2ccc(O)cc2)NC(=O)[C@H](CCCCN)NC(=O)[C@H](CCCCN)NC(=O)[C@H](CCCNC(=N)N)NC(=O)[C@H](C(C)C)NC(=O)[C@H](Cc2ccc(O)cc2)NC(=O)[C@H](CCC(=O)O)NC(=O)[C@@H]2CCCN2C(=O)[C@H]2CCCN2C1=O
notes: also called compound 2
B13 showed an IC50 of 2000 µM.

B14: target cyclic peptide 20 (peptide)
peptide: cyclo(PAYVRKKYA[dP])
SMILES: CC(C)[C@@H]1NC(=O)[C@H](Cc2ccc(O)cc2)NC(=O)[C@H](C)NC(=O)[C@@H]2CCCN2C(=O)[C@H]2CCCN2C(=O)[C@H](C)NC(=O)[C@H](Cc2ccc(O)cc2)NC(=O)[C@H](CCCCN)NC(=O)[C@H](CCCCN)NC(=O)[C@H](CCCNC(=N)N)NC1=O
notes: also called ^LP-A-Y-V-R / ^DP-A-Y-K-K
With B14 the IC50 was 2000 µM.

B15: target cyclic peptide 13 (peptide)
peptide: cyclo(PWIVRKKPW[dP])
SMILES: CC[C@H](C)[C@@H]1NC(=O)[C@H](Cc2c[nH]c3ccccc23)NC(=O)[C@@H]2CCCN2C(=O)[C@H]2CCCN2C(=O)[C@H](Cc2c[nH]c3ccccc23)NC(=O)[C@@H]2CCCN2C(=O)[C@H](CCCCN)NC(=O)[C@H](CCCCN)NC(=O)[C@H](CCCNC(=N)N)NC(=O)[C@H](C(C)C)NC1=O
notes: also called ^LP-W-I-V-R / ^DP-W-P-K-K
Binder B15 has an IC50 of 260 µM.

B16: target cyclic peptide 18 (peptide)
peptide: cyclo(PWKVRKKKW[dP])
SMILES: CC(C)[C@@H]1NC(=O)[C@H](CCCCN)NC(=O)[C@H](Cc2c[nH]c3ccccc23)NC(=O)[C@@H]2CCCN2C(=O)[C@H]2CCCN2C(=O)[C@H](Cc2c[nH]c3ccccc23)NC(=O)[C@H](CCCCN)NC(=O)[C@H](CCCCN)NC(=O)[C@H](CCCCN)NC(=O)[C@H](CCCNC(=N)N)NC1=O
notes: also called ^LP-W-K-V-R / ^DP-W-K-K-K
B16 showed an IC50 of 500 µM.

B17: target cyclic peptide 8 (peptide)
peptide: cyclo(PYYVRKKYY[dP])
SMILES: CC(C)[C@@H]1NC(=O)[C@H](Cc2ccc(O)cc2)NC(=O)[C@H](Cc2ccc(O)cc2)NC(=O)[C@@H]2CCCN2C(=O)[C@H]2CCCN2C(=O)[C@H](Cc2ccc(O)cc2)NC(=O)[C@H](Cc2ccc(O)cc2)NC(=O)[C@H](CCCCN)NC(=O)[C@H](CCCCN)NC(=O)[C@H](CCCNC(=N)N)NC1=O
notes: also called ^LP-Y-Y-V-R / ^DP-Y-Y-K-K
In the case of B17, the IC50 is reported as 800 µM.

B18: target cyclic peptide 5 (peptide)
peptide: cyclo(PESVRKKSI[dP])
SMILES: CC[C@H](C)[C@@H]1NC(=O)[C@H](CO)NC(=O)[C@H](CCCCN)NC(=O)[C@H](CCCCN)NC(=O)[C@H](CCCNC(=N)N)NC(=O)[C@H](C(C)C)NC(=O)[C@H](CO)NC(=O)[C@H](CCC(=O)O)NC(=O)[C@@H]2CCCN2C(=O)[C@H]2CCCN2C1=O
notes: also called compound 5
Work on B18 yielded an IC50 of 2500 µM.

B19: target cyclic peptide 21 (peptide)
peptide: cyclo(PAWVRKKWA[dP])
SMILES: CC(C)[C@@H]1NC(=O)[C@H](Cc2c[nH]c3ccccc23)NC(=O)[C@H](C)NC(=O)[C@@H]2CCCN2C(=O)[C@H]2CCCN2C(=O)[C@H](C)NC(=O)[C@H](Cc2c[nH]c3ccccc23)NC(=O)[C@H](CCCCN)NC(=O)[C@H](CCCCN)NC(=O)[C@H](CCCNC(=N)N)NC1=O
notes: also called ^LP-A-W-V-R / ^DP-A-W-K-K
With B19 the IC50 was 2000 µM.

cyclo(PYWVRKKWY[dP]) (also called ^LP-Y-W-V-R / ^DP-Y-W-K-K) [target cyclic peptide 9] was tested, and the IC50 was 500 µM.

B20: target cyclic peptide 12 (peptide)
peptide: cyclo(PYKVRKKKY[dP])
SMILES: CC(C)[C@@H]1NC(=O)[C@H](CCCCN)NC(=O)[C@H](Cc2ccc(O)cc2)NC(=O)[C@@H]2CCCN2C(=O)[C@H]2CCCN2C(=O)[C@H](Cc2ccc(O)cc2)NC(=O)[C@H](CCCCN)NC(=O)[C@H](CCCCN)NC(=O)[C@H](CCCCN)NC(=O)[C@H](CCCNC(=N)N)NC1=O
notes: also called ^LP-Y-K-V-R / ^DP-Y-K-K-K
B20 was tested, and the IC50 was 1500 µM.

B21: target cyclic peptide 11 (peptide)
peptide: cyclo(PYSVRKKSY[dP])
SMILES: CC(C)[C@@H]1NC(=O)[C@H](CO)NC(=O)[C@H](Cc2ccc(O)cc2)NC(=O)[C@@H]2CCCN2C(=O)[C@H]2CCCN2C(=O)[C@H](Cc2ccc(O)cc2)NC(=O)[C@H](CO)NC(=O)[C@H](CCCCN)NC(=O)[C@H](CCCCN)NC(=O)[C@H](CCCNC(=N)N)NC1=O
notes: also called ^LP-Y-S-V-R / ^DP-Y-S-K-K
Work on B21 yielded an IC50 of 2000 µM.
